Experiment [1] concerns the target recombinant mouse epiregulin (mouse) (UniProt Q61521).
For experiment [2], the target named is recombinant human epiregulin containing the epidermal growth factor (EGF) domain (R&D Biosciences Cat #1195-EP) (human) (UniProt O14944). The experiment can be described thus: cell-based or functional assay.
Sequence of recombinant human epiregulin containing the epidermal growth factor (EGF) domain (R&D Biosciences Cat #1195-EP) (human) (O14944 63-108 limits assumed): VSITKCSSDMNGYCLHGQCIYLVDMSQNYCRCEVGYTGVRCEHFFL

Sequence of recombinant mouse epiregulin (mouse) (Q61521 56-101 limits assumed): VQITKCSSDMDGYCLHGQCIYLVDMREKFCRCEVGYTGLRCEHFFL

For “rat anti-human/mouse neutralizing epiregulin antibody (R&D Systems MAB1068, clone 189611)”, the IC50 of inhibition of HFF proliferation induced by 100 ng/ml rmEreg (GFP fluorescence) in experiment [1] was determined as 0.1 µg/mL. The IC50 of inhibition of epiregulin-induced HFF proliferation (rhEreg 100 ng/ml) in experiment [2] turned out to be 0.16 µg/mL.

Values taken from US20250154238A1, “METHODS AND COMPOSITIONS FOR TREATING AND PREVENTING FIBROSIS” (YALE UNIVERSITY, priority 2022, published 2025).
